Test results: US20240026407A1, “MODIFICATION OF SAPONINS” (GLAXOSMITHKLINE BIOLOGICALS SA, priority 2020, published 2024)

Legend:
Assay type in all cases: biochemical, Quillaja saponaria
[1] = Experiment 6-1: screening of rhamnosidases for derhamnosylation of saponins in treated bark extract (2%), desglucosyl-QS-17 2134 to QS-21 1988 (PAR %); details: TBE 2%, pH 7.5, 30 degC, 18 h; TIC peak area ratio percent, LCMS/MS; negative controls 2.719, 2.158
[2] = Experiment 6-1: specificity of rhamnosidases towards other rhamnose residues (C3 saccharide rhamnose, C28 saccharide rhamnose); details: TBE 2%, pH 7.5, 30 degC, 18 h; LCMS/MS; negative controls 0.18, 0.17
[3] = Experiment 6-2: screening of rhamnosidases for derhamnosylation of saponins in treated bark extract (25%), relative % of Left, Middle and Right Peak by UV HPLC; details: TBE 25%, pH 7.4, 19.5 h; for Left Peak: mainly QS-17 family, negative control 24%; for Middle Peak: mainly QS-18 and desglucosyl-QS-17 family, negative control 50%; for Right Peak: mainly QS-21 family, negative control 26%
[4] = Experiment 6-1: screening of rhamnosidases for derhamnosylation of saponins in treated bark extract (2%), QS-17 2296 to QS-18 2150 (PAR %); details: TBE 2%, pH 7.5, 30 degC, 18 h; TIC peak area ratio percent of rhamnosylated starting saponin to derhamnosylated product, LCMS/MS; negative controls 4.876, 5.225
[5] = Experiment 6-1: screening of rhamnosidases for derhamnosylation of saponins in treated bark extract (2%), QS-17 2310 to QS-18 2164 (PAR %); details: TBE 2%, pH 7.5, 30 degC, 18 h; TIC peak area ratio percent, LCMS/MS; negative controls 3.061, 2.429
[6] = Experiment 6-3: screening of rhamnosidases for derhamnosylation of saponins in crude bark extract (80%), relative % of Left, Middle and Right Peak by UV HPLC; details: CBE 80%, pH 7.4, 30 degC, 19.5 h; for Left Peak: mainly QS-17 family, negative control 27%; for Middle Peak: mainly QS-18 and desglucosyl-QS-17 family, negative control 48%; for Right Peak: mainly QS-21 family, negative control 26%
Method in brief: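 Clarified lysates of expressed rhamnosidase variants were incubated with crude bark extract (pH 7.4, final 80%) at 30 degC with shaking for 19.5 h, then quenched with MeCN+2% AcOH. UV HPLC gave relative % of Left (QS-17), Middle (QS-18/desglucosyl-QS-17) and Right (QS-21) peaks.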

[7] = Experiment 5-2: screening of additional glucosidases for deglycosylation with QS-18 in crude bark extract (80%) at pH 6 and 35 deg C; details: CBE 80%, pH 6, 35 deg C, 18 hours; UV HPLC
Protocol: A plate was lysed at pH 6 as described in Experiment 4-2. 40 uL of clarified lysate was transferred to a reaction plate
The pH of CBE was adjusted to pH 6 by dropwise addition of 2M NaOH with stirring. 160 uL of pH 6 CBE was added to each well of the reaction plate. The reaction plate was sealed and incubated at 35 deg C. with shaking for 18 hours.
The reaction plate was quenched by adding 200 uL of MeCN (2% acetic acid (AcOH), 1 mg/mL hexanophenone) to each well of the plates. The quenched reaction plate was re-sealed and incubated at 20 deg C. with shaking for 10 min. The reaction plate was then centrifuged (10 min, 4 degC).
200 uL was transferred from each well of the quenched plate to the corresponding wells of a fresh 96 well plate and sealed. The plate was analysed by UV HPLC with the method of Experiment 4-4.

[8] = Experiment 5-3: screening of additional glucosidases for deglycosylation with QS-18 in treated bark extract (80%) at pH 6 and 35 deg C; details: TBE 80% (QS-21 approx. 4 g/L), pH 6, 35 deg C; UV HPLC
Protocol: Experiment 5-1 was repeated, replacing CBE with Treated Bark Extract (TBE) at pH 6. TBE was prepared from CBE by PVPP treatment and concentration, to provide TBE with a QS-21 concentration of approximately 4 g/L. TBE was adjusted to pH 6 by dropwise addition of 2M NaOH with stirring.

[9] = Experiment 5-1: screening of additional glucosidases for deglycosylation with purified QS-18 (0.04 mg/ml) at pH 7.5 and 30 deg C; details: pH 7.5, 30 degrees C, 18 hours, LCMS/MS
Protocol: The 94 additional genes, together with positive control (DNA encoding SEQ ID No. 262) and negative control, were transformed, expressed, lysed and reacted in the same manner as described above for Experiment 4-1, except the reaction was incubated at 30 degrees C. for 18 hours.
Samples were analysed by LCMS/MS according to the procedure in Experiment 4-1.

| Molecule | Peak75 (PAR %) [1] | ratio PP/QS-21 [2] | Left Peak [3] | Middle Peak [3] | Right Peak [3] | QS-17 (PAR %) [4] | Peak57 (PAR %) [5] | Left Peak [6] | Middle Peak [6] | Right Peak [6] | Experiment 5-2 % conv [7] | Experiment 5-3 % conv [8] | Experiment 5-1 % conv [9] |
| --- | --- | --- | --- | --- | --- | --- | --- | --- | --- | --- | --- | --- | --- |
| 1052 (protein, listed as Microbacterium testaceum) MTTDTRVAAVKAELRTDSPFVATPTPRLTWRVETSTPSWRQASAEITDGATSVPLEGAESALVAWPFAPLEPGERREVRVRVTGVDGAVTAWSAPLAVEAGFLAPDEWVAEPIGLADPEREAQPALVQTAFRLDRPVRRALLLWTALGSAEPEINGRAVSDDVLAPGWSATRDRLVHETVDVTDLLVEGDNVVGATLAGAWYTERYGFFTFTDRIYGDQPAFLAQLRVTFADGTVETVAPTGSAWTATGDAEIVTSGIYAGEHQDLRLRAPWSTPDATTSGTDRRWAPARVGVVARPGHENVPLPEARIAEPVRRHESLPVVARLATPSGGEVLDFGQNLVGRLRLRVRGEAGTTVTIRHAEVLDEGELALRPLRNAKAEASFVLSGGDDVLESRFSFYGFRYAQITGIDVTDAQVEAVVLHSDMERTGWFTSSHALVNRLHENVVWGMRGNFLALPTDCPQRDERLGWTGDLQVFAPTASFLYDCDGFLTSWLRDLALEQERAGGIVPLVIPAALPSFAGGGPVAAWGDAAAVTPTVLHERFGDIGVLAAQYPSMRAWVEAVRADAGDSGLWAGRMQLGDWLDPSAPPDQPGKAKVDGDIVATAYFARSLRQVAEAAALLENTADAETYHALAERSRRAFVSEYVTPAGRMMSDAPTAYALALAFDLVQDAPTRAALADRLAALVRESGYRISTGFVGTPIIADALSDGGHHDAAERLLLQTQCPSWLYPVTQGATTVWERWDSLLPDGSVNPGEMTSFNHYALGAVADWLHRTVAGLAPAAPGYRRLRVAPRPLAAFEHASARHLTAYGPAEVSWEREPGSDVVRVRAIVPPNTTAEVALPGTLADGSEAPAEVGSGTHEWRVTLPAVPVRPPLPGLEAMLADVIDDPRAYAALLDALEETAPERVEGVRSGTVWGAGRPLASALMFTPPDVLARVDRAVRDATA | 0.000% | 0.16 | 9% | 62% | 30% | 0.000% | 0.000% | 25% | 49% | 27% |  |  |  |
| 804 (protein, listed as Microbacterium trichothecenolyticum) MTETATSTHTDSVQHLVPLLDRLTLEQKAALVQGADFWTTVPLPEIGLRAMTLSDGPAGVRGPRWDEREPSLNLPSGSALAASWDVDLAYRYGAAAASEARRKGVDVVLGPTINLHRSPLGGRHFECFSEDPELTAELAAAYVRGLQDNDVAACPKHYVANDSETDRFTVDVRVDERALRENYLAPFERAVDAGAWTIMSAYNAVDGVTMTENDLLETPLNSEWGFDGVVISDWTAVRSLDSVPAAQDLAMPGPAPAWADLVAAIRDGRLNEADLDRKVLRVLLLAQRVGALGEREPREPAPLDGPAFAREAAIEGTVLLRNEGVLPLDASSLGRVAVIGQNAREARTQGGGSATVIPESVVSPLDAIRAAVPGADVGFEIGAVVQEGVAEIPLAHLTNPATGEAGIRVAFFDADGTELFAENRRSTALVWFGGDAPIAASATVVFETLYTPAETGDIELGFAGANPGKLYVDGQLVLDDSPVIEGTDLGAAFLNPPSITATVAVEAGRETAVRVEFSRESHGALSGALSATLGIAPERTDADELIARAVAEAAASDLAIVVVGTNSKVESEGYDRTSLDLPGRQDDLVRAVAATGTPTVVVVNAGSPVVLPWAEDVAAVVQGYFGGQEFGHAIADVLTGAAEPGGRLPTTWPAALADVPVTEVVPTDGRLEYREGLHIGYRAWLKADAVPAFAFGHGLGYTTWSWGAAQRTGDTVEVTLANTGHRRGKQVVQVYAERPESAVERPERWLVGFATVHAAPGETVTATIPVPARRLAHWAGEWTVESGAYTLRAGASVADLPLSLEWRIAS |  |  |  |  |  |  |  |  |  |  | <0.5% | <0.5% | 83.2% |
| 1073 (protein, listed as Streptomyces scabiei) MSHERATAEGTSAAARTAHRPHESPVHGLTVEHRTDPLGVDADRPRFGWRTRSASRGWRQGSYQILVATSPELLTPASADVWDSGRVRSADSVAVRYAGVPLRASTRYHWTVRVWNTEGRAAGTASPAVFETGLMSTDGVGGWDGARWIGMKGKVPGSPGAPLLRTRETLGCGDGRTVGDARLYISALGVYEAHVNGERVTVRQDGERTLELLPPGWTNYDARVDYLTYDVTVLLADGPEVTLAVVLGNGWYNGRVSEGSTYHTQSGNALAVKAKLLIRYTDGTTRSVVTGTSGGWKATDTGPFRADDLYDGQTYDARRELPGWTAPGFDDTAWSDVEHIAFEDRYPGVRLRAYPGESARFVDRWDRRPQSVTVITGVTGQDGSPHGRGRVVVDPARTVTDPAKAATAQVTLAAGETAVFDLGQNMVGVPRYGVRGPAGARVEFRFAEILNDDSAGADGPEGSLYRANLRSAKATSTYILKGDPEGETHQDSLTFYGFRHVSVTASETVTVTGLTGRVATSAVRETGTVTTNDPHVDKLASNIRWGQRGNYLWVPTDCPQRDERLGWTGDTQVFAVTGLYNADAYTFLSHFQDTVVDSQAIYGADGAQYTGVAPGGRYNFPGGGSGWADCGVVLPWTLWQMTGDTTVVEDNWPSMVRYLDWIRRQTGDTYAGQGSLTGDWLAPQKTSAQLMSDAYYGYSAHLMARMARAIGRAEEAATYERLFGRIRQAFIARYLSTEGGRVTVRSGLGDASPIEPGSDPNEKTEDNSQSALLWVLKLGFYENEAQRRALVALLADDIRNDAAHKEAHPDSVRVRYPENTLSVGFLGVNILAPVLTDEGRADLAYELLHQDALPSWLFSVKNGATTVWERWNSWAEDAGFGPVGMNSFNHYAYGAIMEWMYAYMAGIARDPDAPGFKRFLLQPHLDPTGRITRVRATHESPYGEILSAWEVGSGGRRLAYDVAVPANSEATLRVPAVSADSVREGGTPLADVAGVRFLGHTEGVSSYLLPSGRYRLSADLR | 0.000% | 0.18 | 6% | 62% | 31% | 0.007% | 0.000% | 20% | 52% | 28% |  |  |  |
| 1017 (protein, listed as Kribbella flavida) MSFPAAPARLRFEHRTDPGPVLGIGTATPRLSWQVPTAPDDYRQAGYEVEIARGDAAPEQYTVDSADQVLVPWPGTPLAARESATVRVRVRGDGDWSQWSDPATVEAGLLSADDWTARFVSPRENAGHEAPAPLIGGVIDLPADIAQARLYATAHGIYEPTLNGTRVGDEQLAPGWTAYEQRLRYQTYDVTDLVAPGENRLELLVGNGWYRGRLGFHGKHSLYGDRLAVLAQLEVTTATGEVKVLASDGTWTTRETNVLADDLYDGQHVDLRRTLGEPGPVDVLDADLSLLVAPDGPPVRVTDVLPAKAVTTSPAGKTLVDFGQNVVGRLRLRVRGGAAGDEIVLRHAEVLEDGELGVRPLRTAKATDSFVLAGPDEVTLEPTLTFHGFRYAEITGVPDLRAEDVEAVVVGSDLRRTGWFESSHPLLDRFHENVVWGMRGNFLDVPTDCPQRDERLGWTGDIQVFSPTASFLFDTAGFLTNWLADLIAEQHKDGSVPFVVPDVLRQPGPATAAWGDAATIVPWVLYERTGDAGLLARQLPSMRAWVDRMAGLAGDDLLWVGGFQFGDWLDPTAPPDDPFRAKADPDVLATAHLARSAEVVALAAEVVGAGELAREYAELAARVRQAFAAEYTTGSGRVLSDAATNYALALQWALLPTEAQRKRAGERLADLVRTAGFRISTGFVGTPLMADALADSGHPDLAYRLLLETGCPSWLYAVTMDATTVWERWDSMLPDGSINPGQMTSFNHYALGAVADWMHRRVAGLAPGDPGYRRIVVDPLFTAHLTKASARHLTPYGEAAVAWSRSGGRVRLEVTVPVGARARVAVPGESAPVEVGHGTHEWTADDVYGETPPLPADATIRQLIDHEPSWTTLAAAATRTGIVADDAELAGRLERYLDHPATELVDAVSPRGFSPSAEALQAELDSVLGR | 0.000% | 0.19 | 6% | 63% | 31% | 0.017% | 0.004% | 17% | 56% | 27% |  |  |  |
